Laboratory results published in patent US20260049138A1 (Chugai, published 2026).

Molecular target: T1, CD3ε homodimer protein (human, UniProt P07766 23-126, limits assumed)
T1 construct: also called CD3 (CD3ε)
Assay: SPR Biacore T200, CD3ε homodimer on chip;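 further: Light-chain single-residue variant antibodies injected over amine-coupled CD3ε homodimer on a CM4 chip at 25 °C, bound amount divided by that of the GLS3000-containing antibody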

T1 sequence (P07766 23-126 limits assumed): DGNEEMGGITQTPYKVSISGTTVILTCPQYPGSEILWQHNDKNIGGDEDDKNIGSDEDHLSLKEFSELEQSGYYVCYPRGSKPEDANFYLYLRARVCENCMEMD

Binder	ratio of amount bound vs unaltered GLS3000
GLS3000 S27eL one-arm antibody (antibody, human IgG1, kappa, L234A L235A, N297A, name in Kabat numbering) heavy: QVQLVESGGGVVQPGRSLRLSCAASGFTFSNAWMHWVRQAPGKGLEWVAQIKAKSNNYATYYAESVKGRFTISRDDSKNSLYLQMNSLKTEDTAVYYCRYVHYGAYYGVDAWGQGTTVTVSSASTKGPSVFPLAPSSKSTSGGTAALGCLVKDYFPEPVTVSWNSGALTSGVHTFPAVLQSSGLYSLSSVVTVPSSSLGTQTYICNVNHKPSNTKVDKKVEPKSCDKTHTCPPCPAPEAAGGPSVFLFPPKPKDTLMISRTPEVTCVVVDVSHEDPEVKFNWYVDGVEVHNAKTKPREEQYASTYRVVSVLTVLHQDWLNGKEYKCKVSNKALPAPIEKTISKAKGQPREPQVYTLPPSRCELTKNQVSLSCAVKGFYPSDIAVEWESNGQPENNYKTTPPVLDSDGSFFLVSKLTVDKSRWQQGNVFSCSVMHEALHNHYTQKSLSLSPDYKDDDDK EPKSSDKTHTCPPCPAPELLGGPSVFLFPPKPKDTLMISRTPEVTCVVVDVSHEDPEVKFNWYVDGVEVHNAKTKPREEQYNSTYRVVSVLTVLHQDWLNGKEYKCKVSNKALPAPIEKTISKAKGQPREPQVCTLPPSRDELTKNQVSLWCLVKGFYPSDIAVEWESNGQPENNYKTTPPVLDSDGSFFLYSKLTVDKSRWQQGNVFSCSVMHEALHNRYTQKSLSLSP light: DIVMTQSPLSLPVTPGEPASISCRSSQSLVHLNRNTYLHWYQQKPGQAPRLLIYKVSNRFSGVPDRFSGSGSGTDFTLKISRVEAEDVGVYYCGQGTQVPYTFGQGTKLEIKRTVAAPSVFIFPPSDEQLKSGTASVVCLLNNFYPREAKVQWKVDNALQSGNSQESVTEQDSKDSTYSLSSTLTLSKADYEKHKVYACEVTHQGLSSPVTKSFNRGEC	1.17
GLS3000 S27eM one-arm antibody (antibody, human IgG1, kappa, L234A L235A, N297A, name in Kabat numbering) heavy: QVQLVESGGGVVQPGRSLRLSCAASGFTFSNAWMHWVRQAPGKGLEWVAQIKAKSNNYATYYAESVKGRFTISRDDSKNSLYLQMNSLKTEDTAVYYCRYVHYGAYYGVDAWGQGTTVTVSSASTKGPSVFPLAPSSKSTSGGTAALGCLVKDYFPEPVTVSWNSGALTSGVHTFPAVLQSSGLYSLSSVVTVPSSSLGTQTYICNVNHKPSNTKVDKKVEPKSCDKTHTCPPCPAPEAAGGPSVFLFPPKPKDTLMISRTPEVTCVVVDVSHEDPEVKFNWYVDGVEVHNAKTKPREEQYASTYRVVSVLTVLHQDWLNGKEYKCKVSNKALPAPIEKTISKAKGQPREPQVYTLPPSRCELTKNQVSLSCAVKGFYPSDIAVEWESNGQPENNYKTTPPVLDSDGSFFLVSKLTVDKSRWQQGNVFSCSVMHEALHNHYTQKSLSLSPDYKDDDDK EPKSSDKTHTCPPCPAPELLGGPSVFLFPPKPKDTLMISRTPEVTCVVVDVSHEDPEVKFNWYVDGVEVHNAKTKPREEQYNSTYRVVSVLTVLHQDWLNGKEYKCKVSNKALPAPIEKTISKAKGQPREPQVCTLPPSRDELTKNQVSLWCLVKGFYPSDIAVEWESNGQPENNYKTTPPVLDSDGSFFLYSKLTVDKSRWQQGNVFSCSVMHEALHNRYTQKSLSLSP light: DIVMTQSPLSLPVTPGEPASISCRSSQSLVHMNRNTYLHWYQQKPGQAPRLLIYKVSNRFSGVPDRFSGSGSGTDFTLKISRVEAEDVGVYYCGQGTQVPYTFGQGTKLEIKRTVAAPSVFIFPPSDEQLKSGTASVVCLLNNFYPREAKVQWKVDNALQSGNSQESVTEQDSKDSTYSLSSTLTLSKADYEKHKVYACEVTHQGLSSPVTKSFNRGEC	1.23
GLS3000 S27eR one-arm antibody (antibody, human IgG1, kappa, L234A L235A, N297A, name in Kabat numbering) heavy: QVQLVESGGGVVQPGRSLRLSCAASGFTFSNAWMHWVRQAPGKGLEWVAQIKAKSNNYATYYAESVKGRFTISRDDSKNSLYLQMNSLKTEDTAVYYCRYVHYGAYYGVDAWGQGTTVTVSSASTKGPSVFPLAPSSKSTSGGTAALGCLVKDYFPEPVTVSWNSGALTSGVHTFPAVLQSSGLYSLSSVVTVPSSSLGTQTYICNVNHKPSNTKVDKKVEPKSCDKTHTCPPCPAPEAAGGPSVFLFPPKPKDTLMISRTPEVTCVVVDVSHEDPEVKFNWYVDGVEVHNAKTKPREEQYASTYRVVSVLTVLHQDWLNGKEYKCKVSNKALPAPIEKTISKAKGQPREPQVYTLPPSRCELTKNQVSLSCAVKGFYPSDIAVEWESNGQPENNYKTTPPVLDSDGSFFLVSKLTVDKSRWQQGNVFSCSVMHEALHNHYTQKSLSLSPDYKDDDDK EPKSSDKTHTCPPCPAPELLGGPSVFLFPPKPKDTLMISRTPEVTCVVVDVSHEDPEVKFNWYVDGVEVHNAKTKPREEQYNSTYRVVSVLTVLHQDWLNGKEYKCKVSNKALPAPIEKTISKAKGQPREPQVCTLPPSRDELTKNQVSLWCLVKGFYPSDIAVEWESNGQPENNYKTTPPVLDSDGSFFLYSKLTVDKSRWQQGNVFSCSVMHEALHNRYTQKSLSLSP light: DIVMTQSPLSLPVTPGEPASISCRSSQSLVHRNRNTYLHWYQQKPGQAPRLLIYKVSNRFSGVPDRFSGSGSGTDFTLKISRVEAEDVGVYYCGQGTQVPYTFGQGTKLEIKRTVAAPSVFIFPPSDEQLKSGTASVVCLLNNFYPREAKVQWKVDNALQSGNSQESVTEQDSKDSTYSLSSTLTLSKADYEKHKVYACEVTHQGLSSPVTKSFNRGEC	1.58
GLS3000 S27eP one-arm antibody (antibody, human IgG1, kappa, L234A L235A, N297A, name in Kabat numbering) heavy: QVQLVESGGGVVQPGRSLRLSCAASGFTFSNAWMHWVRQAPGKGLEWVAQIKAKSNNYATYYAESVKGRFTISRDDSKNSLYLQMNSLKTEDTAVYYCRYVHYGAYYGVDAWGQGTTVTVSSASTKGPSVFPLAPSSKSTSGGTAALGCLVKDYFPEPVTVSWNSGALTSGVHTFPAVLQSSGLYSLSSVVTVPSSSLGTQTYICNVNHKPSNTKVDKKVEPKSCDKTHTCPPCPAPEAAGGPSVFLFPPKPKDTLMISRTPEVTCVVVDVSHEDPEVKFNWYVDGVEVHNAKTKPREEQYASTYRVVSVLTVLHQDWLNGKEYKCKVSNKALPAPIEKTISKAKGQPREPQVYTLPPSRCELTKNQVSLSCAVKGFYPSDIAVEWESNGQPENNYKTTPPVLDSDGSFFLVSKLTVDKSRWQQGNVFSCSVMHEALHNHYTQKSLSLSPDYKDDDDK EPKSSDKTHTCPPCPAPELLGGPSVFLFPPKPKDTLMISRTPEVTCVVVDVSHEDPEVKFNWYVDGVEVHNAKTKPREEQYNSTYRVVSVLTVLHQDWLNGKEYKCKVSNKALPAPIEKTISKAKGQPREPQVCTLPPSRDELTKNQVSLWCLVKGFYPSDIAVEWESNGQPENNYKTTPPVLDSDGSFFLYSKLTVDKSRWQQGNVFSCSVMHEALHNRYTQKSLSLSP light: DIVMTQSPLSLPVTPGEPASISCRSSQSLVHPNRNTYLHWYQQKPGQAPRLLIYKVSNRFSGVPDRFSGSGSGTDFTLKISRVEAEDVGVYYCGQGTQVPYTFGQGTKLEIKRTVAAPSVFIFPPSDEQLKSGTASVVCLLNNFYPREAKVQWKVDNALQSGNSQESVTEQDSKDSTYSLSSTLTLSKADYEKHKVYACEVTHQGLSSPVTKSFNRGEC	1.26
GLS3000 S27eN one-arm antibody (antibody, human IgG1, kappa, L234A L235A, N297A, name in Kabat numbering) heavy: QVQLVESGGGVVQPGRSLRLSCAASGFTFSNAWMHWVRQAPGKGLEWVAQIKAKSNNYATYYAESVKGRFTISRDDSKNSLYLQMNSLKTEDTAVYYCRYVHYGAYYGVDAWGQGTTVTVSSASTKGPSVFPLAPSSKSTSGGTAALGCLVKDYFPEPVTVSWNSGALTSGVHTFPAVLQSSGLYSLSSVVTVPSSSLGTQTYICNVNHKPSNTKVDKKVEPKSCDKTHTCPPCPAPEAAGGPSVFLFPPKPKDTLMISRTPEVTCVVVDVSHEDPEVKFNWYVDGVEVHNAKTKPREEQYASTYRVVSVLTVLHQDWLNGKEYKCKVSNKALPAPIEKTISKAKGQPREPQVYTLPPSRCELTKNQVSLSCAVKGFYPSDIAVEWESNGQPENNYKTTPPVLDSDGSFFLVSKLTVDKSRWQQGNVFSCSVMHEALHNHYTQKSLSLSPDYKDDDDK EPKSSDKTHTCPPCPAPELLGGPSVFLFPPKPKDTLMISRTPEVTCVVVDVSHEDPEVKFNWYVDGVEVHNAKTKPREEQYNSTYRVVSVLTVLHQDWLNGKEYKCKVSNKALPAPIEKTISKAKGQPREPQVCTLPPSRDELTKNQVSLWCLVKGFYPSDIAVEWESNGQPENNYKTTPPVLDSDGSFFLYSKLTVDKSRWQQGNVFSCSVMHEALHNRYTQKSLSLSP light: DIVMTQSPLSLPVTPGEPASISCRSSQSLVHNNRNTYLHWYQQKPGQAPRLLIYKVSNRFSGVPDRFSGSGSGTDFTLKISRVEAEDVGVYYCGQGTQVPYTFGQGTKLEIKRTVAAPSVFIFPPSDEQLKSGTASVVCLLNNFYPREAKVQWKVDNALQSGNSQESVTEQDSKDSTYSLSSTLTLSKADYEKHKVYACEVTHQGLSSPVTKSFNRGEC	1.16
GLS3000 S27eQ one-arm antibody (antibody, human IgG1, kappa, L234A L235A, N297A, name in Kabat numbering) heavy: QVQLVESGGGVVQPGRSLRLSCAASGFTFSNAWMHWVRQAPGKGLEWVAQIKAKSNNYATYYAESVKGRFTISRDDSKNSLYLQMNSLKTEDTAVYYCRYVHYGAYYGVDAWGQGTTVTVSSASTKGPSVFPLAPSSKSTSGGTAALGCLVKDYFPEPVTVSWNSGALTSGVHTFPAVLQSSGLYSLSSVVTVPSSSLGTQTYICNVNHKPSNTKVDKKVEPKSCDKTHTCPPCPAPEAAGGPSVFLFPPKPKDTLMISRTPEVTCVVVDVSHEDPEVKFNWYVDGVEVHNAKTKPREEQYASTYRVVSVLTVLHQDWLNGKEYKCKVSNKALPAPIEKTISKAKGQPREPQVYTLPPSRCELTKNQVSLSCAVKGFYPSDIAVEWESNGQPENNYKTTPPVLDSDGSFFLVSKLTVDKSRWQQGNVFSCSVMHEALHNHYTQKSLSLSPDYKDDDDK EPKSSDKTHTCPPCPAPELLGGPSVFLFPPKPKDTLMISRTPEVTCVVVDVSHEDPEVKFNWYVDGVEVHNAKTKPREEQYNSTYRVVSVLTVLHQDWLNGKEYKCKVSNKALPAPIEKTISKAKGQPREPQVCTLPPSRDELTKNQVSLWCLVKGFYPSDIAVEWESNGQPENNYKTTPPVLDSDGSFFLYSKLTVDKSRWQQGNVFSCSVMHEALHNRYTQKSLSLSP light: DIVMTQSPLSLPVTPGEPASISCRSSQSLVHQNRNTYLHWYQQKPGQAPRLLIYKVSNRFSGVPDRFSGSGSGTDFTLKISRVEAEDVGVYYCGQGTQVPYTFGQGTKLEIKRTVAAPSVFIFPPSDEQLKSGTASVVCLLNNFYPREAKVQWKVDNALQSGNSQESVTEQDSKDSTYSLSSTLTLSKADYEKHKVYACEVTHQGLSSPVTKSFNRGEC	1.1
